± gives the uncertainty stated by the source.

Our source for the amyloid nucleation score values is the supplement of paper PMC12042874.

The data set can be described thus: amyloid nucleation score (Sup35N fusion, yeast selection) (log enrichment); library NNK3; higher = more nucleation; inactive = no reads after selection. The essentials:
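After 24 hours of induction with 100 μM copper sulfate, psi-negative yeast expressing peptides of 20 random codons fused to Sup35N were grown for 7 days at 30°C on medium lacking adenine and uracil. Input and output plasmid inserts were sequenced with Illumina, and sequences with under 100 input reads were discarded. Scores for nucleation are the DiMSum log enrichment of output over input reads, centred on the mode score of non-aggregating sequences.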
With HSSIVWKRYSIYFVKNGGTF, the amyloid nucleation score entry was “inactive”. HSYTVWLVNMS gave an amyloid nucleation score of 2.35 ± 0.077. For HTGLVILSVISPVTCPYWRK, the amyloid nucleation score stood at 0.329 ± 0.3. The value for HVFLLHVMAFYFDLSCFG was “inactive”; that for HVFPVIAPYRLMLNLKWFVY was “inactive”; that for HVNSNPHVLASEVK was “inactive”. Turning to HWESGGKIWNKEYLAGLLPR, the amyloid nucleation score entry was “inactive”.

As for HWYVIKLSSNGCTFAVSLRV, the amyloid nucleation score entry is “inactive”. In the case of HYADRTAWPSACASLYSHAL, the amyloid nucleation score entry is “inactive”. As for HYCRNTGC, the amyloid nucleation score entry was “inactive”.

In the case of HYDMNFIARVPLSQSL, the amyloid nucleation score result is “inactive”.

As to HYFSYIINTAMMRKAYILSG, the amyloid nucleation score is 0.543 ± 0.14. For HYHSWFPTYSYSYYV, the amyloid nucleation score turned out to be 2.71 ± 0.08. Turning to HYILLG, the amyloid nucleation score result was “inactive”. HYLAIYGVGCCNFYSYTAVC: the amyloid nucleation score amounted to 1.28 ± 0.085. For the substance HYWQYMFYSLHFVYRS, the amyloid nucleation score result was “inactive”. To IAAQSRRVGRCDIASLQLLE belongs “inactive”; to IAEDIRARPSVWDLMRSSAI, “inactive”; to IALGRFTCNGIVVVSF, “inactive”. As for IALGWFVIRFDEVVKLFKMF, the amyloid nucleation score result is “inactive”. To IAMWDAMCFYWKIMSGSIMV belongs “inactive”; to IAPVFWITLYHNFTSRIDRF, 1.44 ± 0.14.

With IARKQPLLSMATTSSQVFRA, the amyloid nucleation score result is “inactive”. The value for IATDRSSKVLSFHT was “inactive”; that for IATIVCYRLDGYHVLSYAHT was “inactive”.

For IAYDWCQVSVTNFMSRSLMH, the amyloid nucleation score is -0.04 ± 0.75. For the substance ICGMWGFDAMRITSWNVPNG, the amyloid nucleation score came out at 0.075 ± 0.29.

Regarding ICQQCWTVT, the amyloid nucleation score entry is “inactive”. To ICRLGLLFIMTLRYYNVFVR belongs “inactive”.

Take ICRLVLSNNF: the amyloid nucleation score entry was “inactive”. The value for ICTKSALYQTMLS was “inactive”; that for ICVLCSGIMKMCCAMGDLSV was 1.36 ± 0.064; that for ICYRRPTSSMP was “inactive”. The value for IDIVNL was “inactive”; that for IDKFVRFCIFSWCLMNGDVG was “inactive”.

IDLVVSQVWQSTGAVVALWH yielded an amyloid nucleation score of -0.301 ± 0.83. For IDQRWYCALQCHCREEINCR, the amyloid nucleation score result is “inactive”. In the case of IDRGNSNRPCPDFTDCFYGR, the amyloid nucleation score entry was “inactive”. With IDSDMDKNS, the amyloid nucleation score result is “inactive”. To IDSNE belongs “inactive”; to IDVRATNPVRAVETD, “inactive”. Consider IEDEFEAMSHCLECRNFRKL, for which the amyloid nucleation score result is “inactive”. Consider IEFGYLGT, for which the amyloid nucleation score result is “inactive”. The value for IEINCCSNFIGVCVDNLNL was 2.57 ± 0.055; that for IFCVGVSLRQ was 0.347 ± 0.3. The value for IFFVYLLSANIGCYEWDVVP was 0.821 ± 0.12; that for IFHRD was “inactive”. Turning to IFLCI, the amyloid nucleation score result is “inactive”.

For IFLIPYA, the amyloid nucleation score result was “inactive”.

IFLNLLSRGFGLGRELKCRC: the amyloid nucleation score entry was “inactive”. The value for IFMLWPAD was “inactive”; that for IFNNYIIYTSYKEV was 3.49 ± 0.077. The value for IFNQLDLFCDRTLDGLRDAK was “inactive”; that for IFNRQFQKSIMRSWLNYESK was 0.864 ± 0.13; that for IFPFFVVFGFDTYAGI was “inactive”. In the case of IFSMMLF, the amyloid nucleation score entry was “inactive”. The value for IFSRGEGLLRRMVSL was “inactive”.

On to IFVCKRLMRGLVR, for which the amyloid nucleation score entry was “inactive”. In the case of IFYDNADTSKMNHISH, the amyloid nucleation score entry was “inactive”.

IFYVGNTLIFFIYMNWNRTY: the amyloid nucleation score was found to be 0.679 ± 0.24.

IGDDGFVN: the amyloid nucleation score entry is “inactive”. The value for IGHGYMVDRWILRVVMVVAL was “inactive”; that for IGLSLGCVFVMDNVLNARN was 1.55 ± 0.076; that for IGRTCMCLYSAVVFIRHGTT was “inactive”.

The substance IGVYWVLPPGFFGWQNTLMI returned an amyloid nucleation score of 0.161 ± 0.56. On to IHHKLVDL, for which the amyloid nucleation score result was “inactive”.

For the substance IHLGMWIRKQFY, the amyloid nucleation score is 0.985 ± 0.15. The value for IIAPRLY was “inactive”. The value for IIHLENMPICQGALIDGLAL was “inactive”. To IIITVVGSCYSV belongs 1.7 ± 0.071; to IINFSYANAVVIVWLNISMG, 1.08 ± 0.16. Turning to IIRSGGNGLCSTKYLSSHFL, the amyloid nucleation score result is “inactive”. The value for IIRVGMLWVGKLLRRSWGEQ was “inactive”; that for IKFIPYYCYPCRLIRLRVKC was “inactive”; that for IKFRDVEGKTLVQKCSQIF was “inactive”. The value for IKGQSLSNSVFWSGGLDLRV was “inactive”. On to IKLVIANCNYMMYVEMV, for which the amyloid nucleation score entry was “inactive”. Substance IKMGVRYGRNTVWTARCGSG showed an amyloid nucleation score of 0.222 ± 0.6. As to IKQDVASSVFM, the amyloid nucleation score entry was “inactive”. For the substance IKSERIWDM, the amyloid nucleation score result was “inactive”. Consider IKSPLDFFNVYVMVLGNWQI, for which the amyloid nucleation score entry was “inactive”. Take ILCAFTRVWCYTNGPYESGR: the amyloid nucleation score came to 2.72 ± 0.053. To ILIRITGAFYIMIINNRRLL belongs “inactive”. For the substance ILLLRGDGEACFNRVNDNSF, the amyloid nucleation score entry was “inactive”. To ILLMLSVQGNLLKRMRILSM belongs “inactive”. To ILLRQKHVHNY belongs “inactive”; to ILMELPRRRMWSLKALSLMY, “inactive”.

ILRCVFRGYMYYVMGSFYLT: the amyloid nucleation score result is “inactive”. Turning to ILSCPSS, the amyloid nucleation score result was “inactive”.

In the case of ILSNINFVRNSFCYYMINFI, the amyloid nucleation score result is “inactive”. With ILTEYLPSTS, the amyloid nucleation score result is “inactive”. ILTKRTAAFDPLGLKNWERC registered an amyloid nucleation score of -0.398 ± 1.7. To ILTLLCRFTYRDETPCLWTV belongs “inactive”; to ILVHTHLSTLSIRHTASPMT, “inactive”. The value for ILVLDSWYVACTTACKGTNK was -1.57 ± 2.5; that for ILVYLASLVTNFNYVHIPLG was 0.969 ± 0.18; that for ILWLLILTFLNRRARCIEQN was -0.567 ± 0.51.

For IMCSGFFDTVKFGWSLLSFS, the amyloid nucleation score was found to be 0.521 ± 0.24.

IMILFI showed an amyloid nucleation score of 0.13 ± 0.49. The value for IMKACGDK was “inactive”; that for IMMFIPWTSYLKYRIIMDYS was “inactive”. To IMMIDWWYMFGCYACLETCH belongs “inactive”. For IMSRMYDDSFADLVCKHAVD, the amyloid nucleation score result is “inactive”.

For IMTVILSPLLTCNYFCCR, the amyloid nucleation score amounted to 2.35 ± 0.085.

Regarding IMWGYDSWFCSANHRSQFRY, the amyloid nucleation score was -0.314 ± 0.98. Take IMYTRAYLFYTRDHCLFIRV: the amyloid nucleation score result was “inactive”.

In the case of INCLRSLTNCINSCRPIIVL, the amyloid nucleation score result was “inactive”. INFSCLLLKHLFRWVRPYLS: the amyloid nucleation score entry is “inactive”. For INITLWWVTVEFNMSARVQI, the amyloid nucleation score entry is “inactive”. For the substance INLGLPVWSSIIFFNQSHNL, the amyloid nucleation score was determined as 0.679 ± 0.14. For the substance INPYVL, the amyloid nucleation score result is “inactive”.

Regarding INQRVYESWLAFV, the amyloid nucleation score entry is “inactive”.

With INSLFLRERICRVRCPGFAS, the amyloid nucleation score entry is “inactive”. Regarding INSTRMAFVWR, the amyloid nucleation score result was “inactive”. With INTEGLVVIVGGRLYVILRV, the amyloid nucleation score entry is “inactive”. To INTGQMQSAYETNLVMRKLA belongs “inactive”; to INTLYMTDRDRSLPESVQNL, “inactive”. Regarding INVVSEFGFGLQSTFRSDLV, the amyloid nucleation score entry is “inactive”.

For INWIWAYI, the amyloid nucleation score result is “inactive”. For the substance INYGTRQCVVQCIIVVCSLG, the amyloid nucleation score was 2.17 ± 0.068. To IPLLNVFSTRRSTCLEGSFT belongs “inactive”.

With IPLYHSWSVASLRLRNVVSW, the amyloid nucleation score entry was “inactive”.

Consider IPVNYLASDMFN, for which the amyloid nucleation score result is “inactive”. To IPVQFFVQIRSGIVHFWHER belongs 1.81 ± 0.11; to IPWCSPDGLVRRYHHKR, “inactive”; to IQFPDQ, “inactive”. The value for IQHFFQINNWLLDI was 1.98 ± 0.07; that for IQLMLFIDCLSENCYVWLRY was “inactive”; that for IQMGGWIIMYSAGCGA was “inactive”. IQNANVRHYKRHRKFLTFIS registered an amyloid nucleation score of 1.27 ± 0.11. On to IQSYK, for which the amyloid nucleation score result was “inactive”.

For IRAYTDNDSNLSEFGVFTLV, the amyloid nucleation score entry was “inactive”.
